Results reported in the supplement of paper PMC9112550, “Optimization of the antimicrobial peptide Bac7 by deep mutational scanning” (BMC Biology, 2022).

test system: Escherichia coli TOP10; experiment: shrunken log2 fold change of peptide-encoding DNA abundance (4.5 h post-induction vs induction); higher = less antimicrobial activity (less host growth inhibition); settings: time post-induction: 4.5 h; library: site-saturation at positions 5, 18, 19, 20
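Also: peptides expressed intracellularly from a pBAD plasmid library in pooled LB shake-flask culture, induced with 0.3% L-arabinose, DNA abundance read by NGS, three biological replicates, DESeq2 with apeglm shrinkage.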

Point of comparison: RRIRKRPPRLPRPRPRPPSYPRP, “shrunken log2 fold change” value 0.667. Against it:
- RRIRWRPPRLPRPRPRPYETPRP — lower, -0.181
- RRIRSRPPRLPRPRPRPFDCPRP — lower, -0.277
- RRIRSRPPRLPRPRPRPHAHPRP — lower, -0.32
- RRIRKRPPRLPRPRPRPGPGPRP — within 0.2 log units, 0.493
- RRIRDRPPRLPRPRPRPLDKPRP — lower, -0.0615
- RRIRMRPPRLPRPRPRPLAQPRP — within 0.2 log units, 0.634
- RRIRCRPPRLPRPRPRPGAEPRP — lower, 0.239
- RRIRPRPPRLPRPRPRPKSTPRP — lower, -0.244
- RRIRPRPPRLPRPRPRPIFAPRP — lower, 0.33
- RRIRTRPPRLPRPRPRPWVSPRP — lower, 0.137
- RRIRMRPPRLPRPRPRPATYPRP — lower, 0.0281
- RRIRMRPPRLPRPRPRPSYDPRP — lower, 0.26
- RRIRYRPPRLPRPRPRPWRFPRP — lower, -0.00218
- RRIRYRPPRLPRPRPRPNKIPRP — lower, -0.995
- RRIRARPPRLPRPRPRPGEAPRP — higher, 0.942
- RRIRGRPPRLPRPRPRPMMPPRP — lower, 0.119
- RRIRWRPPRLPRPRPRPSPMPRP — lower, -0.108
- RRIRGRPPRLPRPRPRPGTHPRP — within 0.2 log units, 0.508
- RRIRKRPPRLPRPRPRPSPIPRP — lower, 0.0333
- RRIRMRPPRLPRPRPRPFWGPRP — lower, -0.149
- RRIRFRPPRLPRPRPRPRALPRP — lower, 0.148
- RRIRVRPPRLPRPRPRPEQPPRP — within 0.2 log units, 0.515
- RRIRARPPRLPRPRPRPTDTPRP — within 0.2 log units, 0.535
- RRIRWRPPRLPRPRPRPGYKPRP — lower, -0.255
- RRIRIRPPRLPRPRPRPGLIPRP — lower, -0.627
- RRIRFRPPRLPRPRPRPYEVPRP — lower, -0.12
- RRIRHRPPRLPRPRPRPLNRPRP — lower, 0.0215
- RRIRLRPPRLPRPRPRPQEYPRP — lower, -0.846
- RRIRMRPPRLPRPRPRPSERPRP — lower, 0.365
- RRIRHRPPRLPRPRPRPPKLPRP — lower, 0.12
- RRIRPRPPRLPRPRPRPKSLPRP — lower, -0.015
- RRIRYRPPRLPRPRPRPPFKPRP — lower, -0.554
- RRIRNRPPRLPRPRPRPCTWPRP — lower, 0.0117
- RRIRERPPRLPRPRPRPCIMPRP — lower, -0.397
- RRIRHRPPRLPRPRPRPNSCPRP — lower, -0.089
- RRIRLRPPRLPRPRPRPFSMPRP — lower, -0.0455
- RRIRLRPPRLPRPRPRPTEQPRP — lower, 0.0272
- RRIRDRPPRLPRPRPRPQGGPRP — lower, -0.17
- RRIRPRPPRLPRPRPRPRKWPRP — within 0.2 log units, 0.671
- RRIRMRPPRLPRPRPRPIHWPRP — lower, -0.257
- RRIRWRPPRLPRPRPRPQNDPRP — lower, -0.0722
- RRIRARPPRLPRPRPRPEQRPRP — lower, 0.2
- RRIRCRPPRLPRPRPRPCAQPRP — lower, 0.101
- RRIRVRPPRLPRPRPRPWDSPRP — lower, -0.181
- RRIRWRPPRLPRPRPRPLGQPRP — lower, 0.0349
- RRIRIRPPRLPRPRPRPLAKPRP — lower, -0.346
- RRIRDRPPRLPRPRPRPFFIPRP — lower, -0.191
- RRIRARPPRLPRPRPRPLVDPRP — within 0.2 log units, 0.498
- RRIRLRPPRLPRPRPRPAASPRP — lower, 0.0421
- RRIRTRPPRLPRPRPRPRTYPRP — lower, -0.288
- RRIRRRPPRLPRPRPRPELDPRP — lower, 0.122
- RRIRMRPPRLPRPRPRPVCSPRP — lower, -0.0933
- RRIRVRPPRLPRPRPRPVVEPRP — lower, -0.112
- RRIRQRPPRLPRPRPRPHLEPRP — lower, -0.15
- RRIRPRPPRLPRPRPRPTVTPRP — lower, -0.0401
- RRIRDRPPRLPRPRPRPFMSPRP — lower, -0.0203
- RRIRTRPPRLPRPRPRPIIYPRP — lower, -0.216
- RRIRTRPPRLPRPRPRPQKPPRP — lower, -0.0591
- RRIRGRPPRLPRPRPRPQNQPRP — lower, 0.0596
- RRIRVRPPRLPRPRPRPGPGPRP — lower, 0.298
- RRIRKRPPRLPRPRPRPGKFPRP — lower, -0.174
- RRIRGRPPRLPRPRPRPMNNPRP — lower, 0.18
- RRIRHRPPRLPRPRPRPICTPRP — lower, -0.485
- RRIRYRPPRLPRPRPRPPDSPRP — lower, -0.0664
- RRIRNRPPRLPRPRPRPERLPRP — lower, 0.0695
- RRIRNRPPRLPRPRPRPSVAPRP — lower, -0.0478
- RRIRVRPPRLPRPRPRPQIPPRP — lower, -0.298
- RRIRQRPPRLPRPRPRPPFCPRP — lower, -0.284
- RRIRRRPPRLPRPRPRPGPKPRP — lower, 0.255
- RRIRDRPPRLPRPRPRPVMCPRP — lower, 0.156
- RRIRMRPPRLPRPRPRPVQTPRP — lower, 0.0257
- RRIRERPPRLPRPRPRPPDGPRP — lower, 0.0068
- RRIRPRPPRLPRPRPRPYNEPRP — lower, -0.458
- RRIRHRPPRLPRPRPRPVQIPRP — lower, -0.0126
- RRIRERPPRLPRPRPRPHAIPRP — lower, -0.234
- RRIRFRPPRLPRPRPRPSWVPRP — lower, -0.393
- RRIRPRPPRLPRPRPRPRFYPRP — lower, 0.0111
- RRIRPRPPRLPRPRPRPQVLPRP — lower, -0.208
- RRIRHRPPRLPRPRPRPEKFPRP — lower, -0.0202
- RRIRRRPPRLPRPRPRPRFDPRP — lower, 0.121
- RRIRWRPPRLPRPRPRPFYGPRP — lower, -0.0562
- RRIRLRPPRLPRPRPRPDGMPRP — lower, -0.153
- RRIRFRPPRLPRPRPRPRPLPRP — lower, 0.406
- RRIRCRPPRLPRPRPRPWCRPRP — lower, -0.282
- RRIRIRPPRLPRPRPRPATVPRP — lower, -0.319
- RRIRVRPPRLPRPRPRPSAVPRP — lower, -0.0662
- RRIRWRPPRLPRPRPRPLADPRP — higher, 1.06
- RRIRTRPPRLPRPRPRPKAKPRP — lower, -0.0262
- RRIRYRPPRLPRPRPRPDTMPRP — lower, -0.0156
- RRIRSRPPRLPRPRPRPNEDPRP — lower, -0.0395
- RRIRGRPPRLPRPRPRPFQNPRP — lower, 0.31
- RRIRLRPPRLPRPRPRPNQFPRP — lower, 0.0261
- RRIRWRPPRLPRPRPRPVWQPRP — lower, 0.301
- RRIRIRPPRLPRPRPRPGVEPRP — lower, -0.0594
- RRIRKRPPRLPRPRPRPLMYPRP — lower, -0.0706
- RRIRGRPPRLPRPRPRPRNIPRP — lower, 0.0648
- RRIRSRPPRLPRPRPRPRRCPRP — lower, 0.359
- RRIRERPPRLPRPRPRPERHPRP — lower, -0.152
- RRIRNRPPRLPRPRPRPLPVPRP — lower, 0.437
- RRIRERPPRLPRPRPRPQHPPRP — lower, -0.367
- RRIRARPPRLPRPRPRPDCRPRP — lower, 0.0473
- RRIRWRPPRLPRPRPRPQTGPRP — lower, -0.000887
- RRIRLRPPRLPRPRPRPCECPRP — lower, 0.202
- RRIRNRPPRLPRPRPRPRWYPRP — lower, -0.194
- RRIRHRPPRLPRPRPRPIMQPRP — lower, -0.228
- RRIRNRPPRLPRPRPRPPPWPRP — within 0.2 log units, 0.591
- RRIRLRPPRLPRPRPRPRIDPRP — lower, -0.0317
- RRIRNRPPRLPRPRPRPRNPPRP — lower, 0.0944
- RRIRNRPPRLPRPRPRPPWCPRP — lower, 0.108
- RRIRYRPPRLPRPRPRPFFHPRP — lower, -1.2
- RRIRGRPPRLPRPRPRPLVIPRP — lower, 0.187
- RRIRTRPPRLPRPRPRPSSGPRP — lower, 0.11
- RRIRVRPPRLPRPRPRPQHHPRP — lower, -0.182
- RRIRARPPRLPRPRPRPAWYPRP — lower, 0.0311
- RRIRRRPPRLPRPRPRPQVDPRP — lower, 0.237
- RRIRDRPPRLPRPRPRPNNTPRP — lower, -0.747
- RRIRCRPPRLPRPRPRPFPNPRP — lower, -0.0279
- RRIRERPPRLPRPRPRPVALPRP — lower, -0.377
- RRIRKRPPRLPRPRPRPHANPRP — lower, 0.18
- RRIRVRPPRLPRPRPRPGNCPRP — lower, 0.0986
- RRIRFRPPRLPRPRPRPGYMPRP — lower, -0.922
- RRIRIRPPRLPRPRPRPRGYPRP — lower, -0.794
- RRIRPRPPRLPRPRPRPNWEPRP — lower, 0.0541
- RRIRFRPPRLPRPRPRPHYYPRP — lower, -0.524
- RRIRWRPPRLPRPRPRPSIKPRP — lower, -0.419
- RRIRYRPPRLPRPRPRPQGFPRP — lower, -0.0121
- RRIRSRPPRLPRPRPRPAHNPRP — lower, 0.133
- RRIRARPPRLPRPRPRPFVCPRP — lower, -0.476
- RRIRRRPPRLPRPRPRPDSNPRP — lower, 0.0666
- RRIRVRPPRLPRPRPRPIKNPRP — lower, -0.361
- RRIRQRPPRLPRPRPRPFCRPRP — lower, -0.0325
- RRIRWRPPRLPRPRPRPGRYPRP — lower, -0.137
- RRIRIRPPRLPRPRPRPMNCPRP — lower, 0.0904
- RRIRSRPPRLPRPRPRPYCYPRP — lower, -0.0398
- RRIRFRPPRLPRPRPRPSTEPRP — lower, -0.112
- RRIRMRPPRLPRPRPRPTRRPRP — higher, 1.14
- RRIRNRPPRLPRPRPRPEENPRP — lower, -0.00776
- RRIRKRPPRLPRPRPRPRVTPRP — lower, 0.138
- RRIRCRPPRLPRPRPRPGQQPRP — lower, 0.0269
- RRIRSRPPRLPRPRPRPNVTPRP — lower, -0.0212
- RRIRARPPRLPRPRPRPPCVPRP — lower, 0.342
- RRIRIRPPRLPRPRPRPRKFPRP — lower, -0.000367
- RRIRLRPPRLPRPRPRPKNPPRP — lower, -0.606
- RRIRWRPPRLPRPRPRPDPKPRP — lower, -0.0134
- RRIRYRPPRLPRPRPRPNYHPRP — lower, -1.04
- RRIRWRPPRLPRPRPRPMDAPRP — lower, 0.051
- RRIRKRPPRLPRPRPRPGDPPRP — higher, 1.21
- RRIRWRPPRLPRPRPRPALLPRP — within 0.2 log units, 0.584
- RRIRPRPPRLPRPRPRPFEWPRP — lower, -0.124
